The source of these data is IntAct's records for PubMed 21670263.

The target in one assay is tf2h1_human GTF2H1 (UniProt P32780).
The next assay addresses cbp_human CREBBP (UniProt Q92793).

Sequence of Krueppel-like factor 1 (Homo sapiens), Q13351 W73P (Q13351 whole entry W73P): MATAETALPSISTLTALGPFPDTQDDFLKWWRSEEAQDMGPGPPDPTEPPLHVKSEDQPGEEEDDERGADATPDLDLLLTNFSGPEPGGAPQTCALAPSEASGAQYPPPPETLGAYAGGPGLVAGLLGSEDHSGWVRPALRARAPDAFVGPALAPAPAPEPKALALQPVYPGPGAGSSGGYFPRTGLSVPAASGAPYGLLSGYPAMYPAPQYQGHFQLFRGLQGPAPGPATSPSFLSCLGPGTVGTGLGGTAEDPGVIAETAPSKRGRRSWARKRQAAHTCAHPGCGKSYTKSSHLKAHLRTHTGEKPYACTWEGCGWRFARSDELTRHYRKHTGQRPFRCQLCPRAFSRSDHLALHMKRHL
Sequence of tf2h1_human GTF2H1 (P32780 whole entry): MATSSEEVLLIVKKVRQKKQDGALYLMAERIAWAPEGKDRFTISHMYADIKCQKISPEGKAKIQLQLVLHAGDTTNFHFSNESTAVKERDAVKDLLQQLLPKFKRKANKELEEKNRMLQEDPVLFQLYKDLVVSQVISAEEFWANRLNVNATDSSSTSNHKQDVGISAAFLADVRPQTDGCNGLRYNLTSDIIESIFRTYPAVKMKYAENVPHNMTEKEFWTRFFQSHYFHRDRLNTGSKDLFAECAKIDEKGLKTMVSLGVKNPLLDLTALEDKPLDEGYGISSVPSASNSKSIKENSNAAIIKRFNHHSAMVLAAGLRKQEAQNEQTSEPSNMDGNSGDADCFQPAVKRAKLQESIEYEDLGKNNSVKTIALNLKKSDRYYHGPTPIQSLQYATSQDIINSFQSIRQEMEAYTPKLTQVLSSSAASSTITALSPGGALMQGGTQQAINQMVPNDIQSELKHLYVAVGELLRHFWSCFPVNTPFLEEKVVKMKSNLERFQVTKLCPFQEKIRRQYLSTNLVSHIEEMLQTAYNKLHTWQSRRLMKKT
Sequence of cbp_human CREBBP (Q92793 whole entry, looked up): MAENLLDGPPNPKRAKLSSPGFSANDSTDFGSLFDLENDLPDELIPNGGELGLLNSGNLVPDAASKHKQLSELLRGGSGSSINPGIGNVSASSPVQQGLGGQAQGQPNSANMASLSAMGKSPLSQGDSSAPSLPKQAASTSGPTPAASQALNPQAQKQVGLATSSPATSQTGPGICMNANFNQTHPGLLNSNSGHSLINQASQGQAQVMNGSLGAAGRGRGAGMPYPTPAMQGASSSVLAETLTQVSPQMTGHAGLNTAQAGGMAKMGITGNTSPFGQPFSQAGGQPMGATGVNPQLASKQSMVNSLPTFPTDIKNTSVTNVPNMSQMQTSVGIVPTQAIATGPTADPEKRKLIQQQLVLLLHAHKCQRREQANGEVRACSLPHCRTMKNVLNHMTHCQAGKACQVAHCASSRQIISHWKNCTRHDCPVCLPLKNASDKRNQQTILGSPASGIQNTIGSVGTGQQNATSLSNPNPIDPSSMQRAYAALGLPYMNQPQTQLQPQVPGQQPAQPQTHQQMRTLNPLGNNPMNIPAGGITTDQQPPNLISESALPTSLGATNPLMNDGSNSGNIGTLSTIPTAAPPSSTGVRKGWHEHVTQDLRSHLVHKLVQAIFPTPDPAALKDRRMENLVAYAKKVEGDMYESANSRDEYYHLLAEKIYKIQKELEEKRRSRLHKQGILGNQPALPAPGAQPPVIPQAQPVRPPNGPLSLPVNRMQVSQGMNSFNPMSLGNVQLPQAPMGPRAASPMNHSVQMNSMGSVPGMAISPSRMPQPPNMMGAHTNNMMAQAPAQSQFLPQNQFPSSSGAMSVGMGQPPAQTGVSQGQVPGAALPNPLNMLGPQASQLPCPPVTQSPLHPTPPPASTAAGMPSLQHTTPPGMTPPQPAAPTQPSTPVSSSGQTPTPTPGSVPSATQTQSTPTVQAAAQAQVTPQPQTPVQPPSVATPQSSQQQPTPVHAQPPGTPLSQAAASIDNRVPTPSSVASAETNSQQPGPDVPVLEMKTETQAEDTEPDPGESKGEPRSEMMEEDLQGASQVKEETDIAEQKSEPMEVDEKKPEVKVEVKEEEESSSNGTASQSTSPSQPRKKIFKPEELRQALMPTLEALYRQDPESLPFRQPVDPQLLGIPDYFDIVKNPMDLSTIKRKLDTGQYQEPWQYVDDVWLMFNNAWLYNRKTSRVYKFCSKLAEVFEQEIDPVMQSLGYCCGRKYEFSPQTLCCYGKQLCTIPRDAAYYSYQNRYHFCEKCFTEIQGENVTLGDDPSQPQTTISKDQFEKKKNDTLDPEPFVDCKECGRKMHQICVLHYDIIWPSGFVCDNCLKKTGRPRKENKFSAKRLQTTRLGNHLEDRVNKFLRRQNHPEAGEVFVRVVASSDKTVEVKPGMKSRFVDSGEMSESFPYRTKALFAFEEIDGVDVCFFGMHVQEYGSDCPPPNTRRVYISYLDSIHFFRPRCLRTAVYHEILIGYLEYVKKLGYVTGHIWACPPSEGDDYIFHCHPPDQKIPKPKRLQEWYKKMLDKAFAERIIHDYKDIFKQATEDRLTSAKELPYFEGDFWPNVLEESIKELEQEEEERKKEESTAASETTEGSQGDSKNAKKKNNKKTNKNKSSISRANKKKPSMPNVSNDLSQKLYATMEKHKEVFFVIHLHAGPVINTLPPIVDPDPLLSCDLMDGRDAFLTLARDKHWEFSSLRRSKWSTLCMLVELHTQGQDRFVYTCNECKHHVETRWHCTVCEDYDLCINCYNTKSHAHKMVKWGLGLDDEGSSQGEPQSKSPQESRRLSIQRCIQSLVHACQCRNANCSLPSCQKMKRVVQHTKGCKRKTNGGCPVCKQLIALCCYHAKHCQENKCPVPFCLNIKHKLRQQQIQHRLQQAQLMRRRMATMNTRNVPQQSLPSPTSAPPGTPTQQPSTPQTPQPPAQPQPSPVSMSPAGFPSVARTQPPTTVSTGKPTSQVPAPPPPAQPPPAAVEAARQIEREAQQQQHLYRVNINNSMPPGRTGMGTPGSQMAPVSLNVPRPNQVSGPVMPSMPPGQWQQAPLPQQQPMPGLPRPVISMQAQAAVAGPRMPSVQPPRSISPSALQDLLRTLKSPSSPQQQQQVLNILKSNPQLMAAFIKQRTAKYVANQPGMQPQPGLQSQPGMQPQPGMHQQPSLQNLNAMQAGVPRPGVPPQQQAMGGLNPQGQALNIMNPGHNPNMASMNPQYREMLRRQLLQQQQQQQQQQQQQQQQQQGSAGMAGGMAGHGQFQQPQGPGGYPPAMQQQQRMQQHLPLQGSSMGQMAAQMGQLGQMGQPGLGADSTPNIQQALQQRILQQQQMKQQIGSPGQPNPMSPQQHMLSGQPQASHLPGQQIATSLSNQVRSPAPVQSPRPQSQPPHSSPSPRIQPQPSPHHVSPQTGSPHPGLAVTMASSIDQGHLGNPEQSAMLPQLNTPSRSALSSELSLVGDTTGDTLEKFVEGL

As for “Krueppel-like factor 1 (Homo sapiens), Q13351 W73P”, the “effect of a mutation on the interaction” value with tf2h1_human GTF2H1 and in the assay with cbp_human CREBBP was “disrupting interaction strength” in each case.
